Experimental findings from patent US7176008 are described below.

The target in assay [1] is human carboxypeptidase N (human) (UniProt P15169).
Another assay concerns the target thrombin. Kind of assay: cell-based or functional assay.

Sequence of human carboxypeptidase N (human) (P15169 21-458 limits assumed, chain 1 of 2): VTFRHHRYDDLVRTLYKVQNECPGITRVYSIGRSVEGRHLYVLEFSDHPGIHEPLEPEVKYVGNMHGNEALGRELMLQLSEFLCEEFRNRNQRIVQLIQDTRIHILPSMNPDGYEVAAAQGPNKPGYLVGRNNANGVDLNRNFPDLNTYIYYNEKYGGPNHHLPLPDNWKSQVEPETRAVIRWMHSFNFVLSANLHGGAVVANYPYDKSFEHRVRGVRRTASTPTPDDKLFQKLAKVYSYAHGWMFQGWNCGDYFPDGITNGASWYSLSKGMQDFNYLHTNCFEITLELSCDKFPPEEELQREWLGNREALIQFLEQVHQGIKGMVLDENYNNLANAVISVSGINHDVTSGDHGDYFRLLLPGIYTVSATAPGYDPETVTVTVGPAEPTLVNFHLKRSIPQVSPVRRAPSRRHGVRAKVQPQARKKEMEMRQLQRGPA
Sequence of human carboxypeptidase N (human) (P22792 22-545 limits assumed, chain 2 of 2, further chain): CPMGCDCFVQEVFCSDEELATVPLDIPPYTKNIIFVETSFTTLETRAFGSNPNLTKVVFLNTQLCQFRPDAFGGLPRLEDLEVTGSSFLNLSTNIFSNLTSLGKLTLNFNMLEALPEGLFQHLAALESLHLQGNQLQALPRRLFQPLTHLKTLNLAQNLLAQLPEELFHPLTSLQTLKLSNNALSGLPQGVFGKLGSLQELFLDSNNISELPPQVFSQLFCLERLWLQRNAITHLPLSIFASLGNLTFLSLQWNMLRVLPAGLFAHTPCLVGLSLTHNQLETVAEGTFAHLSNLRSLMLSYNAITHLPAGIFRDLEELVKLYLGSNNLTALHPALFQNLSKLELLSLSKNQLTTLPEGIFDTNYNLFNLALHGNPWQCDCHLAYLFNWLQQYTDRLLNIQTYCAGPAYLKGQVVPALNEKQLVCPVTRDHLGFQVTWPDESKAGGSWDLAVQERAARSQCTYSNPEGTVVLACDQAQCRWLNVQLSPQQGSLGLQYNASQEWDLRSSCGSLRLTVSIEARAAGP

As to “protamine sulfate (grade X from salmon, Mr 5,000) (peptide)”, the Ki in assay [1] stood at 970 nM.

In the assay with thrombin, rabbit lung thrombomodulin yielded an increase of TAFIa generation in diluted human plasma of 30 to 35 fold.
